Measured values published in PMC4014545, “Structure and Inhibition of Mouse Leukotriene C4 Synthase” (PLoS ONE, 2014).

Legend:
[1] = target: T1, mouse leukotriene C4 synthase (mLTC4S) (Mus musculus, UniProt Q60860); experiment: X-ray crystal structure (co-crystal), […] Å; Km […] also measured; format: binding
T1 construct: gene Ltc4s; N-terminal hexa-histidine tag
T1 sequence (Q60860 1-150): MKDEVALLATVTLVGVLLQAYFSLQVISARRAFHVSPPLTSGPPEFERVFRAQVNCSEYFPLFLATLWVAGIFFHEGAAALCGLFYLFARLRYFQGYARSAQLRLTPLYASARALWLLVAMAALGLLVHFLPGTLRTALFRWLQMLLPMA

[2] = target: T2, human leukotriene C4 synthase (hLTC4S) (Homo sapiens, UniProt Q16873); experiment: LTC4 formation by purified enzyme, RP-HPLC; competitive inhibition model fit; format: biochemical
T2 construct: gene LTC4S
T2 sequence (Q16873 1-150): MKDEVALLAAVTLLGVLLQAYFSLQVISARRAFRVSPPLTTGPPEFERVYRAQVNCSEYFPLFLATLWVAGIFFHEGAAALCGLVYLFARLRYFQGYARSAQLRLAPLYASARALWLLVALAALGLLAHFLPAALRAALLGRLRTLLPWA

[3] = target: T1, mouse leukotriene C4 synthase (mLTC4S); experiment: as above; format: biochemical
[4] = substrate: CCCCC/C=C\C\C=C/C=C/C=C/[C@@H]1O[C@H]1CCCC(=O)O; experiment: steady-state kinetics (Km) of purified enzyme, RP-HPLC; format: biochemical, Mus musculus; conditions: GSH hydrophobic LTA4 binding site; pH 7.8
[5] = substrate: CCCCC/C=C\C\C=C/C=C/C=C/[C@@H]1O[C@H]1CCCC(=O)O; experiment: as above; format: biochemical, Homo sapiens; conditions: GSH hydrophobic LTA4 binding site; pH 7.8

## N[C@@H](CCC(=O)N[C@@H](CS)C(=O)NCC(=O)O)C(=O)O [GSH]
[1]
  X-ray crystal structure (co-crystal), 2.7 Å; Km 1.2±0.24 mM also measured: In the structure of the mLTC4S in complex with GSH, the tripeptide has a “U” shaped conformation

## CN(c1ccc(Cl)cc1)c1ccc(C(=O)c2ccc(C(=O)c3ccccc3)c(C(=O)O)c2)nc1 [TK04, 2-Benzoyl-5-{5-[(4-chlorophenyl) (methyl)amino]pyridine-2-carbonyl}benzoic acid]
[2]
  Ki: 0.041 ± 0.0066 µM
[3]
  Ki: 0.037 ± 0.0064 µM

B1: mouse leukotriene C4 synthase (mLTC4S) (Mus musculus) (protein)
chain: MKDEVALLATVTLVGVLLQAYFSLQVISARRAFHVSPPLTSGPPEFERVFRAQVNCSEYFPLFLATLWVAGIFFHEGAAALCGLFYLFARLRYFQGYARSAQLRLTPLYASARALWLLVAMAALGLLVHFLPGTLRTALFRWLQMLLPMA
notes: N-terminal hexa-histidine tag
[4]
  Km: 36 ± 8 µM
  kcat: 81 ± 7 s⁻¹
  kcat/Km: 2.3e+06 ± 260000 M⁻¹ s⁻¹

B2: human leukotriene C4 synthase (hLTC4S) (Homo sapiens) (protein)
chain: MKDEVALLAAVTLLGVLLQAYFSLQVISARRAFRVSPPLTTGPPEFERVYRAQVNCSEYFPLFLATLWVAGIFFHEGAAALCGLVYLFARLRYFQGYARSAQLRLAPLYASARALWLLVALAALGLLAHFLPAALRAALLGRLRTLLPWA
[5]
  Km: 23 ± 3 µM
  kcat: 15.5 ± 0.8 s⁻¹
  kcat/Km: 600000 ± 57000 M⁻¹ s⁻¹
